One assay concerns the target T1, mFc-cNKG2D (cynomolgus monkey, UniProt P61252 73-216).
T1 construct: extracellular domain; Made in house (Dragonfly Tx); also called recombinant cyno NKG2D extracellular domain (ECD); mFc-tagged cyno NKG2D dimer; not shown: mouse Fc tag
T1 sequence (looked up): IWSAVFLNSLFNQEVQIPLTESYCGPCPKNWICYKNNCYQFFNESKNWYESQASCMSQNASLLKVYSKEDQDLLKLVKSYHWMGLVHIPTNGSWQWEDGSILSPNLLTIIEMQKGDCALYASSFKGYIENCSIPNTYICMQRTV
The assay is described as follows: SPR Biacore 37 C; mFc-tagged cyno NKG2D dimer, TriNKET as analyte; kinetics fit; average of 4. (Surface plasmon resonance follows binding to a sensor surface in real time, without labels.)

The target in assay [1] is T2, mFc-hNKG2D (human, UniProt P26718 73-216).
T2 construct: extracellular domain; Made in house (Dragonfly Tx); the order of tag and ECD follows the name mFc-hNKG2D; also called mFc-tagged human NKG2D; not shown: mouse Fc tag
T2 sequence (looked up): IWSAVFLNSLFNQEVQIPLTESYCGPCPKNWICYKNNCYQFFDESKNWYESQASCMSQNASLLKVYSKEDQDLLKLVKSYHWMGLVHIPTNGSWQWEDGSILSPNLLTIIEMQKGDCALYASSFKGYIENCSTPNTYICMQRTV
The assay is described as follows: SPR Biacore 8K 37 C; mFc-hNKG2D captured on anti-mFc chip, TriNKET as analyte; 1:1 kinetic fit; after 0.02% H2O2 24 h.

A further assay concerns the target T3, Human CLEC12A-His (human, UniProt Q5QGZ9 65-265).
T3 construct: Recombinant soluble protein made in house; also called hCLEC12A-His; hCLEC12A; not shown: His tag
T3 sequence: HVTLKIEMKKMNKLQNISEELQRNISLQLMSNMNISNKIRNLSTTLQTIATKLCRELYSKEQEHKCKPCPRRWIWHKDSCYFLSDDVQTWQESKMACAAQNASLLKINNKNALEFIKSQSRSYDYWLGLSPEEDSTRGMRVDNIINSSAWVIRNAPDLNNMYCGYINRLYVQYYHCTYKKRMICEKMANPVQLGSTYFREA
The assay is described as follows: SPR; sample after pH 5.0, 40 C, 2 weeks.

For assay [2], the target named is T4, mFc-hNKG2D (human, UniProt P26718 73-216).
T4 construct: extracellular domain; Recombinant mFc-tagged NKG2D dimer, made in house; also called human NKG2D; not shown: mouse Fc tag
T4 sequence (looked up): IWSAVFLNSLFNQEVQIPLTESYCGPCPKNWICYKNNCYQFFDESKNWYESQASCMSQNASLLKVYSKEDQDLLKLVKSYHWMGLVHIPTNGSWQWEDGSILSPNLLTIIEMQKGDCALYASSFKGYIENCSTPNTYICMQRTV
The assay can be described thus: SPR; sample after pH 5.0, 40 C, 2 weeks.

The target of the next assay is T5, Human CD16a V158 (human, UniProt P08637 17-208, biotinylated).
T5 construct: Bought recombinant receptor; also called hCD16a (V158); hFcγRIIIa V158
T5 sequence (P08637 17-208 F176V limits assumed): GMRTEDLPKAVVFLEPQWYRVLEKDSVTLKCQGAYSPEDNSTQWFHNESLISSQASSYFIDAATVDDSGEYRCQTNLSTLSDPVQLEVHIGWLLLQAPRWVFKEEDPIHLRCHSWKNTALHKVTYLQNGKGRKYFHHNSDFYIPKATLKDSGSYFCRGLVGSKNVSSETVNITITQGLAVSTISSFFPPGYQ
The assay is described as follows: SPR; sample after pH 5.0, 40 C, 2 weeks.

Assay [3] concerns the target T6, human CLEC12A expressed on cells (human, UniProt Q5QGZ9 1-265).
T6 construct: Transduced isogenic cells or endogenous expression on AML cells; also called RMA-hCLEC12A; Ba/F3-hCLEC12A
T6 sequence: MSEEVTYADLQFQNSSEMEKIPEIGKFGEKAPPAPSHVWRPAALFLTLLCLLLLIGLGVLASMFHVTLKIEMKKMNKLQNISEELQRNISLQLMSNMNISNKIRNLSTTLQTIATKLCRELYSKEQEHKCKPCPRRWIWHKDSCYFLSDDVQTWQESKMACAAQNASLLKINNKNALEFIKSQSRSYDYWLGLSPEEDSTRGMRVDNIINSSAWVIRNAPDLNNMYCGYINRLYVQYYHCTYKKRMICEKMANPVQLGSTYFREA
The assay is described as follows: flow cytometry, hCLEC12A+ Ba/F3.

The results in this text go back to US20220119534A1 (DRAGONFLY THERAPEUTICS, published 2022).

What is called Kd is a measure of binding affinity in units of concentration. A higher Kd goes with weaker binding. As a reminder, the koff is the rate constant with which the complex falls apart. Low values mean slow dissociation, high ones fast dissociation. Usually kon stands for the second-order rate constant of association.

B1: F3'-1602 TriNKET (bispecific antibody, human IgG1, kappa)
chain: QLQLQESGPGLVKPSETLSLTCTVSGFSLTNYGLHWIRQPPGKCLEWIGVIWSGGKTDYNPSLKSRVTISKDTSKNQFSLKLSSVQAADTAVYYCAKYDYDDSLDYWGQGTLVTVSSGGGGSGGGGSGGGGSGGGGSDIQMTQSPSSLSASVGDRVTITCHASQNINFWLSWYQQKPGKAPKLLIYEASNLHTGVPSRFSGSGSGTRFTLTISSLQPEDIATYYCQQSHSYPLTFGCGTKLEIKGSDKTHTCPPCPAPELLGGPSVFLFPPKPKDTLMISRTPEVTCVVVDVSHEDPEVKFNWYVDGVEVHNAKTKPREEQYNSTYRVVSVLTVLHQDWLNGKEYKCKVSNKALPAPIEKTISKAKGQPREPRVYTLPPCRDELTKNQVSLTCLVKGFYPSDIAVEWESNGQPENNYKTTPPVLVSDGSFTLYSKLTVDKSRWQQGNVFSCSVMHEALHNHYTQKSLSLSPG
heavy: EVQLVESGGGLVKPGGSLRLSCAASGFTFSSYSMNWVRQAPGKGLEWVSSISSSSSYIYYADSVKGRFTISRDNAKNSLYLQMNSLRAEDTAVYYCARGAPIGAAAGWFDPWGQGTLVTVSSASTKGPSVFPLAPSSKSTSGGTAALGCLVKDYFPEPVTVSWNSGALTSGVHTFPAVLQSSGLYSLSSVVTVPSSSLGTQTYICNVNHKPSNTKVDKKVEPKSCDKTHTCPPCPAPELLGGPSVFLFPPKPKDTLMISRTPEVTCVVVDVSHEDPEVKFNWYVDGVEVHNAKTKPREEQYNSTYRVVSVLTVLHQDWLNGKEYKCKVSNKALPAPIEKTISKAKGQPREPQVCTLPPSRDELTENQVSLTCLVKGFYPSDIAVEWESNGQPENNYKTTPPVLDSDGSFFLYSWLTVDKSRWQQGNVFSCSVMHEALHNHYTQKSLSLSPG
light: DIQMTQSPSSVSASVGDRVTITCRASQGISSWLAWYQQKPGKAPKLLIYAASSLQSGVPSRFSGSGSGTDFTLTISSLQPEDFATYYCQQGVSFPRTFGGGTKVEIKRTVAAPSVFIFPPSDEQLKSGTASVVCLLNNFYPREAKVQWKVDNALQSGNSQESVTEQDSKDSTYSLSSTLTLSKADYEKHKVYACEVTHQGLSSPVTKSFNRGEC
notes: Trispecific F3' format: CLEC12A scFv-Fc paired with NKG2D Fab-Fc; Stressed and control samples of the stability studies are the same molecule; also called AB0237
The molecule B1 had an equilibrium dissociation constant (Kd) with mFc-cNKG2D of 839 nM. Further, in the assay with mFc-hNKG2D [1], the Kd was determined as 722 nM, the koff was found to be 0.107 s⁻¹ and the kon worked out at 148000 M⁻¹ s⁻¹.

B2: AB0192 TriNKET (other)
chain: EVQLVESGGGVVQPGGSLRLSCAASGFTFNAFGMHWVRQAPGKCLEWVAFISSGSTSIYYANTVKGRFTISRDNSKNTLYLQMNSLRAEDTAVYYCARDGYPTGGAMDYWGQGTSVTVSSGGGGSGGGGSGGGGSGGGGSDIQMTQSPSSLSASVGDRVTITCKASQDIYNYLSWFQQKPGKAPKPLIYRANILVSGVPSRFSGSGSGQDYTFTISSLQPEDIATYYCLQFDAFPFTFGCGTKLEIKGSDKTHTCPPCPAPELLGGPSVFLFPPKPKDTLMISRTPEVTCVVVDVSHEDPEVKFNWYVDGVEVHNAKTKPREEQYNSTYRVVSVLTVLHQDWLNGKEYKCKVSNKALPAPIEKTISKAKGQPREPRVYTLPPCRDELTKNQVSLTCLVKGFYPSDIAVEWESNGQPENNYKTTPPVLVSDGSFTLYSKLTVDKSRWQQGNVFSCSVMHEALHNHYTQKSLSLSPG
heavy: EVQLVESGGGLVKPGGSLRLSCAASGFTFSSYSMNWVRQAPGKGLEWVSSISSSSSYIYYADSVKGRFTISRDNAKNSLYLQMNSLRAEDTAVYYCARGAPIGAAAGWFDPWGQGTLVTVSSASTKGPSVFPLAPSSKSTSGGTAALGCLVKDYFPEPVTVSWNSGALTSGVHTFPAVLQSSGLYSLSSVVTVPSSSLGTQTYICNVNHKPSNTKVDKKVEPKSCDKTHTCPPCPAPELLGGPSVFLFPPKPKDTLMISRTPEVTCVVVDVSHEDPEVKFNWYVDGVEVHNAKTKPREEQYNSTYRVVSVLTVLHQDWLNGKEYKCKVSNKALPAPIEKTISKAKGQPREPQVCTLPPSRDELTENQVSLTCLVKGFYPSDIAVEWESNGQPENNYKTTPPVLDSDGSFFLYSWLTVDKSRWQQGNVFSCSVMHEALHNHYTQKSLSLSPG
light: DIQMTQSPSSVSASVGDRVTITCRASQGISSWLAWYQQKPGKAPKLLIYAASSLQSGVPSRFSGSGSGTDFTLTISSLQPEDFATYYCQQGVSFPRTFGGGTKVEIKRTVAAPSVFIFPPSDEQLKSGTASVVCLLNNFYPREAKVQWKVDNALQSGNSQESVTEQDSKDSTYSLSSTLTLSKADYEKHKVYACEVTHQGLSSPVTKSFNRGEC
notes: the condition stands under assay; also called AB0192 Lot AB0192-005
With B2, in the assay with Human CLEC12A-His, the Kd worked out at 1.65 nM, the koff was found to be 0.0013 s⁻¹ and the association rate constant (kon) is 787000 M⁻¹ s⁻¹. In addition, in the assay with mFc-hNKG2D [2], binding was characterised by a dissociation constant (Kd) of 574 nM, the koff was determined as 0.12 s⁻¹ and the kon amounted to 210000 M⁻¹ s⁻¹. In the assay with Human CD16a V158, the dissociation constant (Kd) is 192 nM, the off-rate constant (koff) is 0.0208 s⁻¹ and the on-rate (kon) was 108000 M⁻¹ s⁻¹.

B3: F3'-1602 TriNKET (other)
chain: QLQLQESGPGLVKPSETLSLTCTVSGFSLTNYGLHWIRQPPGKCLEWIGVIWSGGKTDYNPSLKSRVTISKDTSKNQFSLKLSSVQAADTAVYYCAKYDYDDSLDYWGQGTLVTVSSGGGGSGGGGSGGGGSGGGGSDIQMTQSPSSLSASVGDRVTITCHASQNINFWLSWYQQKPGKAPKLLIYEASNLHTGVPSRFSGSGSGTRFTLTISSLQPEDIATYYCQQSHSYPLTFGCGTKLEIKGSDKTHTCPPCPAPELLGGPSVFLFPPKPKDTLMISRTPEVTCVVVDVSHEDPEVKFNWYVDGVEVHNAKTKPREEQYNSTYRVVSVLTVLHQDWLNGKEYKCKVSNKALPAPIEKTISKAKGQPREPRVYTLPPCRDELTKNQVSLTCLVKGFYPSDIAVEWESNGQPENNYKTTPPVLVSDGSFTLYSKLTVDKSRWQQGNVFSCSVMHEALHNHYTQKSLSLSPG
heavy: EVQLVESGGGLVKPGGSLRLSCAASGFTFSSYSMNWVRQAPGKGLEWVSSISSSSSYIYYADSVKGRFTISRDNAKNSLYLQMNSLRAEDTAVYYCARGAPIGAAAGWFDPWGQGTLVTVSSASTKGPSVFPLAPSSKSTSGGTAALGCLVKDYFPEPVTVSWNSGALTSGVHTFPAVLQSSGLYSLSSVVTVPSSSLGTQTYICNVNHKPSNTKVDKKVEPKSCDKTHTCPPCPAPELLGGPSVFLFPPKPKDTLMISRTPEVTCVVVDVSHEDPEVKFNWYVDGVEVHNAKTKPREEQYNSTYRVVSVLTVLHQDWLNGKEYKCKVSNKALPAPIEKTISKAKGQPREPQVCTLPPSRDELTENQVSLTCLVKGFYPSDIAVEWESNGQPENNYKTTPPVLDSDGSFFLYSWLTVDKSRWQQGNVFSCSVMHEALHNHYTQKSLSLSPG
light: DIQMTQSPSSVSASVGDRVTITCRASQGISSWLAWYQQKPGKAPKLLIYAASSLQSGVPSRFSGSGSGTDFTLTISSLQPEDFATYYCQQGVSFPRTFGGGTKVEIKRTVAAPSVFIFPPSDEQLKSGTASVVCLLNNFYPREAKVQWKVDNALQSGNSQESVTEQDSKDSTYSLSSTLTLSKADYEKHKVYACEVTHQGLSSPVTKSFNRGEC
notes: CLEC12A scFv-Fc, NKG2D A49MI Fab-Fc, human IgG1 Fc; also called AB0237
For B3, the “fold lower EC50 than F3'-1295” value in assay [3] is roughly 2 fold.
